According to patent publication US20160264664A1 (Ablynx, published 2016):
Changes are numbered by the printed parent chain.

T1: mouse P2X7 (mouse, UniProt Q9Z1M0 1-595)
T1 construct: on transfected CHO or Hek293 cells, or endogenous on Yac-1 cells; also called mP2X7; mouse purinoceptor P2X7
T1 sequence: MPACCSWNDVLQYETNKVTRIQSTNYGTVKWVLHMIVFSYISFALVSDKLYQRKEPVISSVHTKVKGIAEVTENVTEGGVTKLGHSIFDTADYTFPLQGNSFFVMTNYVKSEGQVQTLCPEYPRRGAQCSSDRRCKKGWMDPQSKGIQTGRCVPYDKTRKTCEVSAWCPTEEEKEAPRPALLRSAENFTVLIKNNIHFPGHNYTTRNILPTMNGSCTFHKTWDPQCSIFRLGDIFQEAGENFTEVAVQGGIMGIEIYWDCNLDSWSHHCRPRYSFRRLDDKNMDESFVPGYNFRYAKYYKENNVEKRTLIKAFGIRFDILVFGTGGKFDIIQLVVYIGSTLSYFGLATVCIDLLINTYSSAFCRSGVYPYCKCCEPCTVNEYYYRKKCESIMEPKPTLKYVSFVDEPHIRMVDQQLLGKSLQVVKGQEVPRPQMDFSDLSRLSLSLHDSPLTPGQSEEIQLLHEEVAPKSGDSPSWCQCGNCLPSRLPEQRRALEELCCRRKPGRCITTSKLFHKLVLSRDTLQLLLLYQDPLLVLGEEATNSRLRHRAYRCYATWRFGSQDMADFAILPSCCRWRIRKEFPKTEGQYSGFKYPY

T2: human P2X7 (human, UniProt Q99572 1-595)
T2 construct: on transfected Hek293 cells; also called hP2X7
T2 sequence: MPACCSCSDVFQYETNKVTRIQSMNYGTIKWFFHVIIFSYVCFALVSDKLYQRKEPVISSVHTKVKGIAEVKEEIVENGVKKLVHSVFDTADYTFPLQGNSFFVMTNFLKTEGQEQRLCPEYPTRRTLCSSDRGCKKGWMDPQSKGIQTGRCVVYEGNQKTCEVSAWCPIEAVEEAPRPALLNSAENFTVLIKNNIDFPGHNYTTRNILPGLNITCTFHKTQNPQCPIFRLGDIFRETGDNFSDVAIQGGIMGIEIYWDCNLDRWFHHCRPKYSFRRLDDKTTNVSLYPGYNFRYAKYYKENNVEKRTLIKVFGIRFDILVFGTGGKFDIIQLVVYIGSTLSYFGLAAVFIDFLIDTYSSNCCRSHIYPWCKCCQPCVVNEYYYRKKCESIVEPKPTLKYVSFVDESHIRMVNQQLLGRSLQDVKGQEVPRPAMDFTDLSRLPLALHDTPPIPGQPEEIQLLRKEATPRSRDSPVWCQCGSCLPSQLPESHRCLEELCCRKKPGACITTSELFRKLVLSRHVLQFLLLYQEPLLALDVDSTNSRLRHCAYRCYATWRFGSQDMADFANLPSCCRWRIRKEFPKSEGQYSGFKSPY

T3: human P2X4 (human, UniProt Q99571 1-388)
T3 construct: whole, on cells; also called hP2X4
T3 sequence (looked up): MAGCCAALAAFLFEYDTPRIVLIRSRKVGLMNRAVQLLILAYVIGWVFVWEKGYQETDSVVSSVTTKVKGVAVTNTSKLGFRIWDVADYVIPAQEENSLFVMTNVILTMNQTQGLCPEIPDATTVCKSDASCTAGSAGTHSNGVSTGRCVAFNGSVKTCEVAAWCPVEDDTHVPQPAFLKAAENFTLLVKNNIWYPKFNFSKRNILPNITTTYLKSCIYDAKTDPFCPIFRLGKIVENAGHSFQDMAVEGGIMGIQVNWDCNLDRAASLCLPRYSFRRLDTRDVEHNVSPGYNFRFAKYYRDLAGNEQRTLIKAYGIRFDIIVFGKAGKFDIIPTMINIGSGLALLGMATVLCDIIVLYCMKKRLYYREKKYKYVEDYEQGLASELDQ

B1: P2X7PMP19C2 (VHH)
VHH: EVQLVKSGGGLVQAGGSLRLSCAASPGTFSSFNMGWFRQTPGKEREFVAATSWSDISTYYADSVKGRFTISRDNAKNTVTLEMNSLKPEDTAVYYCAAGYYRGGYLGYRLTLEGSYDVWGQGTQVTVSS
notes: family 15; on phage or c-myc/His6-tagged in assays
B2: P2X7PMP19E3 (VHH)
VHH: B1 VHH with V2M, K6E
notes: as for B1
B3: P2X7PMP14F6 (VHH)
VHH: EVQLVESGGGLVQAGGPLRLSCAASGSFFRVNNMAWYRQAPGKQRELVADITRGDRTNYADSVNGRFTISRDNVRNTVYLQMNGLKPEDTAVYYCYARIELGVLEPRDYWGQGTQVTVSS
notes: family 5, 2; on phage or c-myc/His6-tagged in assays
B4: P2X7PMP14G4 (VHH)
VHH: B3 VHH with P17S, R19G, S27N, N33T, S62T, V92A
notes: as for B3
B5: P2X7PMP14G11 (VHH)
VHH: B3 VHH with Q13K, A14P, P17S, A40G, R98T
notes: family 5, 3; on phage or c-myc/His6-tagged in assays
B6: P2X7PMP14F10 (VHH)
VHH: B3 VHH with P17S, S21L, Y94S, V103I
notes: as for B3
B7: P2X7PMP13G9 (VHH)
VHH: EVQLVESGGGLVQAGGSLRLSCVASGRTFSILTMGWFRQAPGKEREFVAAISGIGAIHYADSVKGRFTLSRDNARNTVSLHMNSLKPEDTAVYYCAAKANYESPSRETSYAYWGQGTQVTVSS
notes: family 23; on phage or c-myc/His6-tagged in assays
B8: P2X7PMP8C7 (VHH)
VHH: EMQLVESGGGLVQAGGSLRLSCAASGRTFSSLAMGWLRQAPGKEREFVSGISRGGTSTYYADSVKGRFTISRDNAKNTMYLQMNSLKPEDTAVYYCAGSPVLSIVLDTRGLEYWGQGTQVTVSS
notes: family 7; on phage or c-myc/His6-tagged in assays
B9: P2X7PMP8E7 (VHH)
VHH: B8 VHH with M2V
notes: as for B8
B10: P2X7PMP13B5 (VHH)
VHH: EVQLVESGGGLVQAGDSLRLSCAASGRTFSSYAMGWFRQAPGKEREFVAAISLSGSMTYYADSMKGRFTISRDNAKNTVYLQMNSLKPEDTAVYYCAAEELGDGLGYLAYRYDYWGQGTQVTVSS
notes: family 19; on phage or c-myc/His6-tagged in assays
B11: P2X7PMP13G4 (VHH)
VHH: EVQLVESGGGLVQAGGSLRLSCAASDRTFGSSTMGWFRQPPGKNREFVATIAWSATTTHYADAVKGRFTVSRDNALNTVYLQMNSLKPEDTAVYYCAATLTWLGIHEYEYNTWGQGTQVTVSS
notes: family 21; on phage or c-myc/His6-tagged in assays
B12: P2X7PMP7G5 (VHH)
VHH: EVQLVESGGGLVQSGGSLRLSCAGSGFSYYIIGWFRQAPGKEREEVSCIRVTDGSTYYTNSVKGRFTMSRDNAENTVYLQMNSLKPEDTAVYSCATECQRWAYPNRIGARGQGTQVTVSS
notes: family 12; on phage or c-myc/His6-tagged in assays
B13: P2X7PMP7B4 (VHH)
VHH: EVQLVESGGGLVQAGGSLRLSCAASGRNFGSYTMAWFRQAPGKGREFVSTINWSGGDTDYADSVKGRFTISRDNAKNTVYLQMDSLKPEDTAVYYCAAGLEYMSTIRYTYEYWGQGTQVTVSS
notes: family 10; on phage or c-myc/His6-tagged in assays
B14: P2X7PMP7A4 (VHH)
VHH: EVQLVESGGGLVQAGGSLRVSCAASARTGSYSMGWFRQAPGKEREFVSTISWNGADTVYADSVKGRFTISRDNAKDTVYLQMNSLKPEDTAVYYCAGSITSYVSTWQHDYEYWGQGTQVTVSS
notes: family 9; on phage or c-myc/His6-tagged in assays
B15: P2X7PMP2A6 (VHH)
VHH: EVQLVESGGDVVQAGGSLRLSCLASGFTFDDYAIGWFRQAPGKEREGISCISSTGNVFYADSVKGRFTISSDKEKNTLYLQMNSLEPEDTAVYHCAAGHFTVDSGKVLLRTDISSWGQGTQVTVSS
notes: family 1; on phage or c-myc/His6-tagged in assays
B16: P2X7PMP7D6 (VHH)
VHH: EVQLVESGGGLVQAGGSLRLSCAASGRTFGSSPVGWFRQAPGKERDFVATISWNGVDTHYLDSVKGRFTISRDNAKNTVHLQMHILKPEDTALYYCAASTSGSVYLPYRVYQYDSWGQGTQVTVSS
notes: family 8; on phage or c-myc/His6-tagged in assays
B17: P2X7PMP13B8 (VHH)
VHH: EVQLVESGGGLVQPGGSLRLSCAASGLTLTYYNIGWFRQAPGKEREGVSCIDWTDGTTFYADSVKGRFTISTDNAKNTVYLHLNSLEPEDTAVYYCAAGWGRVMTVQHMCADRSLFTSWGQGTQVTVSS
notes: family 13; on phage or c-myc/His6-tagged in assays
B18: P2X7PMP4B4 (VHH)
VHH: EVQLVESGGGLVQAGGSLRLSCAASGRTVSDYGMGWFRQAPGKLREFVASINWSGIYTRYIDSVEGRFTISRDNTKNTLYLQMNNLKAEDTAVYYCAYFLGPNWYSNYGRPSSYDFYGQGTQVTVSS
notes: family 4; on phage or c-myc/His6-tagged in assays
B19: P2X7PMP13G5 (VHH)
VHH: EVQLVESGGGLVQAGGSLRLSCAASDRTFGSSAMGWFRQAPGKDRDFVAAISWSGSSTHYADSVKGRFTISRDNAKNTMYLQMNSLKPADTAVYTCAASRRAYLPAKVGEYDFWGQGTQVTVSS
notes: family 18; on phage or c-myc/His6-tagged in assays

biological target: T1, mouse P2X7; assay: phage ELISA, mP2X7-CHO vs control CHO cells
Experimental: (§1) Sub-confluent cells were rinsed with PBS and fixed using 4% paraformaldehyde in PBS for 10 minutes at RT. Fixed cells were washed three times with PBS, and blocked with 2% BSA in PBS for 2 hours. Following blocking, 10-fold diluted culture supernatant containing phage was added and incubated for 1 hour. Cell-bound phage was detected via mouse anti-M13-HRP-conjugate (GE Healthcare, Cat nr. E2886). Rat mAb Hano43 was used as positive control.

Binder	absorption ratio (ELISA) [ratio]
B1	18
B2	8
B3	15
B4	34
B5	30
B6	19

biological target: T1, mouse P2X7; assay: phage ELISA on fixed mP2X7-CHO vs untransfected CHO cells;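 also: phage culture supernatant diluted 10-fold, applied for 1 h to paraformaldehyde-fixed, BSA-blocked cells in 96-well plates, with bound phage read via HRP-linked anti-M13 antibody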
Experimental: as §1

Binder	Fold Cho P2X7/wt (phage ELISA) [fold]
B7	17
B8	21
B9	16
B10	28
B11	56
B12	30
B13	23
B14	32
B15	8
B16	18
B17	24
B18	19
B19	35

biological target: T2, human P2X7; assay: flow cytometry, Nanobody pre-incubated with anti-Myc-FITC

Binder	binding result
B7	no binding (tested: 147 nM)
B8	no binding (tested: 147 nM)
B9	no binding (tested: 147 nM)
B10	no binding (tested: 147 nM)
B11	no binding (tested: 147 nM)
B12	no binding (tested: 147 nM)
B13	no binding (tested: 147 nM)
B14	no binding (tested: 147 nM)
B15	no binding (tested: 147 nM)
B16	no binding (tested: 147 nM)
B17	no binding (tested: 147 nM)
B18	no binding (tested: 147 nM)
B19	no binding (tested: 147 nM)

biological target: T3, human P2X4; assay: as above

Binder	binding result
B7	no binding (tested: 147 nM)
B8	no binding (tested: 147 nM)
B9	no binding (tested: 147 nM)
B10	no binding (tested: 147 nM)
B11	no binding (tested: 147 nM)
B12	no binding (tested: 147 nM)
B13	no binding (tested: 147 nM)
B14	no binding (tested: 147 nM)
B15	no binding (tested: 147 nM)
B16	no binding (tested: 147 nM)
B17	no binding (tested: 147 nM)
B18	no binding (tested: 147 nM)
B19	no binding (tested: 147 nM)

biological target: T1, mouse P2X7; assay: cell-based or functional assay

Binder	ATP IC50 by 2 uM NB (head prints 'mM'; ligand titration at fixed Nanobody, CD62L shedding, Yac-1 cells) [mM]	IC50 (nM) against 20 uM NAD (CD62L shedding, Yac-1 cells) [nM]	IC50 (nM) against 100 uM ATP (CD62L shedding, Yac-1 cells) [nM]
B7	0.469	136	35
B8	–	4000	386
B9	–	4000	576
B10	0.2	3650	436
B18	0.047	–	–

biological target: T1, mouse P2X7; assay: flow cytometry, periplasmic extract pre-incubated with anti-myc-FITC, on mP2X7-Hek293 cells;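 also: periplasmic extract diluted 10-fold and premixed 45 min at 4 °C with FITC anti-myc antibody, giving pseudo-bivalent Nanobodies, before binding to the cells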
Experimental: Ten-fold diluted PE were pre-incubation with 0.5 μg anti-myc FITC-conjugated antibodies (AbD Serotec, cat no. MCA2200F) (creating pseudo-bivalent Nanobodies in order to increase binding strength) in 0.1 ml PBS/10% FCS for 45 minutes at 4° C. […] Alternatively, sequential staining of 10-fold diluted PE with anti-myc FITC-conjugated antibodies was done after incubation with the cells.

Binder	MFI FACS (pre-Myc incubation) [MFI]
B1	64
B2	55
